US20260184782A1 (TWIST BIOSCIENCE, published 2026)
Residue numbers refer to the chain shown, from its start.

B1: TIGIT-SC123 (Fc fusion)
VHH: EVQLVESGGGLVQPGGSLRLSCAASGSIFSGNTMGWFRQAPGKEREFVAAISWSGAYTEYADSVKGRFTISADNSKNTAYLQMNSLKPEDTAVYYCAREGYYGSGSYLVYWGQGTLVTVSS
notes: VHH-Fc fusion in assay
B2: TIGIT-SC70 (Fc fusion)
VHH: EVQLVESGGGLVQPGGSLRLSCAASGRTFSSFAMGWFRQAPGKEREFVAAISGSGEDTYYADSVKGRFTISADNSKNTAYLQMNSLKPEDTAVYYCARWRLDRRQGFYYAMDVWGQGTLVTVSS
notes: VHH-Fc fusion in assay
B3: TIGIT-SC40 (Fc fusion)
VHH: EVQLVESGGGLVQPGGSLRLSCAASGFSFDRWAMGWFRQAPGKERELVARISWNGGSTYYADSVKGRFTISADNSKNTAYLQMNSLKPEDTAVYYCARDDGWLQFMHWGQGTLVTVSS
notes: VHH-Fc fusion in assay
B4: TIGIT-SC43 (Fc fusion)
VHH: EVQLVESGGGLVQPGGSLRLSCAASGFTFADYAMGWFRQAPGKEREMVAAIGWNSGTTEYADSVKGRFTISADNSKNTAYLQMNSLKPEDTAVYYCARDTNGWFFDFWGQGTLVTVSS
notes: VHH-Fc fusion in assay
B5: TIGIT-SC7 (Fc fusion)
VHH: EVQLVESGGGLVQPGGSLRLSCAASGRSFSMYVMGWFRQAPGKEREGVSFISGSDGSTLYADSVKGRFTISADNSKNTAYLQMNSLKPEDTAVYYCARGSIAARPVFFDYWGQGTLVTVSS
notes: VHH-Fc fusion in assay
B6: TIGIT-SC208 (Fc fusion)
VHH: EVQLVESGGGLVQPGGSLRLSCAASGFLFDSYVMGWFRQAPGKEREFVAAIWRSGTLKAYADSVKGRFTISADNSKNTEYLQMNSLKPEDTAVYYCARDDYGDTRRYFQHWGQGTLVTVSS
notes: VHH-Fc fusion in assay
B7: TIGIT-SC207 (Fc fusion)
VHH: B6 VHH with L28A, D30S
notes: VHH-Fc fusion in assay
B8: TIGIT-SC209 (Fc fusion)
VHH: B6 VHH with D30N, V33W, T104Y, R106I
notes: VHH-Fc fusion in assay
B9: TIGIT-SC69 (Fc fusion)
VHH: EVQLVESGGGLVQPGGSLRLSCAASGGTFNGRAMGWFRQAPGKEREFVAAISSIGDTYYADSVKGRFTISADNSKNTAYLQMNSLKPEDTAVYYCARWRLDRRQGFYYAMDVWGQGTLVTVSS
notes: VHH-Fc fusion in assay
B10: TIGIT-SC179 (Fc fusion)
VHH: EVQLVESGGGLVQPGGSLRLSCAASGFTFSPSWMGWFRQAPGKEREWVASVLRGGYTWYADSVKGRFTISADNSKNTAYLQMNSLKPEDTAVYYCASEVASGETDYWGQGTLVTVSS
notes: VHH-Fc fusion in assay
B11: TIGIT-SC163 (Fc fusion)
VHH: B10 VHH with S30D, P31R, S97T, E98D, V99K, A100R, S101G, G102P, E103H, T104P
notes: VHH-Fc fusion in assay
B12: TIGIT-SC166 (Fc fusion)
VHH: B10 VHH with S30D, P31R, S97R, V99G, A100S, S101G, G102Y, E103A, T104S
notes: VHH-Fc fusion in assay
B13: TIGIT-SC168 (Fc fusion)
VHH: EVQLVESGGGLVQPGGSLRLSCAASGFTFDRSWMGWFRQAPGKEREWVASVLRGGYAWYADSVKGRFTISADNSKNTAYLQMSSLKPEDTAVYYCAREGSGYASDYWGQGTLVTVSS
notes: VHH-Fc fusion in assay
B14: TIGIT-SC178 (Fc fusion)
VHH: B10 VHH with F29L
notes: VHH-Fc fusion in assay
B15: TIGIT-SC184 (Fc fusion)
VHH: EVQLVESGGGLVQPGGSLRLSCAASGFTFSPSWMGWFRQAPGKEREWVASVLRGGYTWYADSVKGRFTISADNSKNTAYLQMNSLKPEDTAVYYCTTDRGYNWNYDWGQGTLVTVSS
notes: VHH-Fc fusion in assay
B16: TIGIT-SC211 (Fc fusion)
VHH: EVQLVESGGGLVQPGGSLRLSCAASGFSFSMYVMGWFRQAPGKEREFVAAIWRSGTLKAYADSVKGRFTISADNSKNTAYLQMNSLKPGDTAVYYCARDHRAMVAPFDYWGQGTLVTVSS
notes: VHH-Fc fusion in assay
B17: TIGIT-SC49 (Fc fusion)
VHH: EVQLVESGGGLVQPGGSLRLSCAASGRTFIGYHMGWFRQAPGKEREFVAAISWTGESTLYADSVKGRFTISADNSKNTAYLQMNSLKPEDTAVYYCARDDYGDYRRYFQHWGQGTLVTVSS
notes: VHH-Fc fusion in assay
B18: TIGIT-SC8 (Fc fusion)
VHH: EVQLVESGGGLVQPGGSLRLSCAASGFAFSSYAMGWFRQAPGKEREFVARITWNGGSAYYADSVKGRFTISADNSKNTAYLQMNSLKPEDTAVYYCAAGATGWFDPWGQGTLVTVSS
notes: VHH-Fc fusion in assay
B19: TIGIT-SC100 (Fc fusion)
VHH: EVQLVESGGGLVQPGGSLRLSCAASGRTLSDRAMGWFRQAPGKEREFVAAITDNGGSTYYADSVKGRFTISADNSKNTAYLQMNSLKPEDTAVYYCARWYSSSGDYYYMDVWGQGTLVTVSS
notes: VHH-Fc fusion in assay
B20: TIGIT-SC101 (Fc fusion)
VHH: B19 VHH with L29F, D31S, R32Y, T52D, D53W, N54S, G55D
notes: VHH-Fc fusion in assay
B21: TIGIT-SC104 (Fc fusion)
VHH: EVQLVESGGGLVQPGGSLRLSCAASGFTFSTYTMGWFRQAPGKEREFVAAISPSGNTYYADSVKGRFTISADNSKNTAYLQMNSLKPEDTAVYYCARWGGITFGGVYPLDYWGQGTLVTVSS
notes: VHH-Fc fusion in assay
B22: TIGIT-SC81 (Fc fusion)
VHH: EVQLVESGGGLVQPGGSLRLSCAASGRSFKDDAMGWFRQAPGKEREFVAAISWSGDSTHYADSVKGRFTISADNSKNTAYLQMNSLKPEDTAVYYCARWVWASGTYWIDYWGQGTLVTVSS
notes: VHH-Fc fusion in assay
B23: TIGIT-SC212 (Fc fusion)
VHH: EVQLVESGGGLVQPGGSLRLSCAASGFLFDSYAMGWFRQAPGKEREFVAAIWRSGTLKAYADSVKGRFTISADNSKNTAYLQMNSLKPEDTAVYYCARWVGASGDYWIDYWGQGTLVTVSS
notes: VHH-Fc fusion in assay
B24: TIGIT-SC206 (Fc fusion)
VHH: EVQLVESGGGLVQPGGSLRLSCAASGFLFDSYVMGWFRQAPGKEREFVAAIWRSGTLKAYADSVKGRFTISADNSKNTAYLQMNGLKPEDTAVYYCAGVGTDYGDYLFNYWGQGTLVTVSS
notes: VHH-Fc fusion in assay
B25: TIGIT-SC213 (Fc fusion)
VHH: B23 VHH with F27T, L28F, F29Q, D30R, S31I, Y32N
notes: VHH-Fc fusion in assay
B26: TIGIT-SC18 (Fc fusion)
VHH: EVQLVESGGGLVQPGGSLRLSCAASGFSLDYYAMGWFRQAPGKEREVVAIIDTNGDNTLYADSVKGRFTISADNSKNTAYLQMNSLKPEDTAVYYCARGRGYGDYVGAYWGQGTLVTVSS
notes: VHH-Fc fusion in assay
B27: TIGIT-SC32 (Fc fusion)
VHH: EVQLVESGGGLVQPGGSLRLSCAASGFAFGDSWMGWFRQAPGKERELVAAIDWSGGSALYADSVKGRFTISADNSKNTALQMNSLKPEDTAVYYCAKVHSDFRAGWDVWGQGTLVTVSS
notes: VHH-Fc fusion in assay
B28: TIGIT-SC151 (Fc fusion)
VHH: EVQLVESGGGLVQPGGSLRLSCAASGFPFSIYPMGWFRQAPGKEREFVAAISASGTLRAYADSVKGRFTISADNSKNTAYLQMNSLKPEDTAVYYCARSSSWVRIFDYWGQGTLVTVSS
notes: VHH-Fc fusion in assay
B29: TIGIT-SC52 (Fc fusion)
VHH: EVQLVESGGGLVQPGGSLRLSCAASGFLFDSYAMGWFRQAPGKEREFVAAISTGGGWRTYADSVKGRFTISADNSKNTAYLQMNSLKPEDTAVYYCAKRGNDNWYFDLWGQGTLVTVSS
notes: VHH-Fc fusion in assay
B30: TIGIT-SC22 (Fc fusion)
VHH: EVQLVESGGGLVQPGGSLRLSCAASGFTLENNMMGWFRQAPGKEREMVAAISWSGGSALYADSVKGRFTISADNSKNTAYLQMNSLKPEDTAVYYCARGDGYSYGNFDYWGQGTLVTVSS
notes: VHH-Fc fusion in assay
B31: TIGIT-SC67 (Fc fusion)
VHH: EVQLVESGGGLVQPGGSLRLSCAASGFTFDRSWMGWFRQAPGKEREWVSTIYSNGTPAYADSVKGRFTISADNSKNTAYLQMNSLKPEDTAVYYCARRGLPSYSYGMDVWGQGTLVTVSS
notes: VHH-Fc fusion in assay

Target: T1, recombinant human TIGIT (human, UniProt Q495A1 22-141, limits assumed)
T1 construct: recombinant human TIGIT used in Carterra SPR; also called hTIGIT
T1 sequence (looked up): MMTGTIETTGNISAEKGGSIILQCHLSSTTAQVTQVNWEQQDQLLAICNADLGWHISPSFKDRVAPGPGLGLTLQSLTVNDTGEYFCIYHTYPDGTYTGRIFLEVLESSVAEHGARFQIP
Assay: SPR Carterra, average
Protocol: Binding affinities of VHH-Fc proteins to recombinant human TIGIT were measured by SPR using a Carterra instrument (Table 10A). […] Average values reported from measurements from 1-2 samples.

| Binder | Kd [nM] | koff [s⁻¹] | kon [M⁻¹ s⁻¹] |
| --- | --- | --- | --- |
| B1 | 47.3 | 0.00232 | 49100 |
| B2 | 11.2 | 0.00359 | 321000 |
| B3 | 11.4 | 0.0015 | 137000 |
| B4 | 12 | 0.0013 | 112000 |
| B5 | 12.1 | 0.00372 | 306000 |
| B6 | 851 | 0.196 | 231000 |
| B7 | 12.2 | 0.00371 | 528000 |
| B8 | 41.4 | 0.000625 | 15100 |
| B9 | 12.6 | 0.00276 | 219000 |
| B10 | 51.1 | 0.00269 | 50400 |
| B11 | 86.4 | 0.00269 | 38400 |
| B12 | 24.9 | 0.00147 | 58400 |
| B13 | 83.6 | 0.00254 | 30400 |
| B14 | 296 | 0.0776 | 262000 |
| B15 | 12.7 | 0.014 | 1.11e+06 |
| B16 | 13 | 8.53e-05 | 6540 |

| Binder | Kd [nM] | koff [s⁻¹] | kon [M⁻¹ s⁻¹] |
| --- | --- | --- | --- |
| B17 | 14.4 | 0.00102 | 129000 |
| B18 | 14.6 | 0.000753 | 156000 |
| B19 | 15.1 | 0.00183 | 122000 |
| B20 | 73.4 | 0.00421 | 67800 |
| B21 | 15.2 | 0.00375 | 247000 |
| B22 | 15.3 | 0.00233 | 169000 |
| B23 | 17.1 | 0.00126 | 74100 |
| B24 | 15.6 | 0.0157 | 1e+06 |
| B25 | 36.4 | 0.00285 | 78400 |
| B26 | 16.3 | 0.00225 | 141000 |
| B27 | 16.6 | 0.00243 | 147000 |
| B28 | 16.8 | 0.00479 | 285000 |
| B29 | 17.7 | 0.00175 | 101000 |
| B30 | 17.7 | 0.00118 | 70300 |
| B31 | 18 | 0.00402 | 224000 |
